These results are taken from patent US20240343762A1, “USE OF PROTON PUMP MODULATOR IN PREPARING REAGENT” (SHANGHAI QUIETD BIOTECHNOLOGY CO. LTD., priority 2021, published 2024).

One assay concerns SH-SY5Y cells. The experiment in a line: Rotenone cell model (PD) with immunoblotting of α-synuclein oligomer. As to conditions: 5 μM rotenone, QD202 at 0.1 μM, 0.2 μM, 0.5 μM and 1 μM, 24 hours. The class given is cell-based. The method, then: The rotenone cell model is a commonly used Parkinson's disease (PD) in vitro cell model.
SH-SY5Y cells are cultured in complete medium composed of high-glucose DMEM and 10% fetal bovine serum, placed in an incubator maintained at 37° C. and 5% carbon dioxide for culture. On the day before the rotenone model is established, cells are passaged from 60 mm dishes to 6-well plates, and QD202 treatment experiments are conducted 24 hours after cell passage.
After 24 hours of SH-SY5Y culture, the rotenone model is established. A mixed solution containing 5 μM rotenone and various concentrations of QD202 (0, 0.1 μM, 0.2 μM, 0.5 μM, 1 μM, 5 μM, 10 μM) is prepared with complete medium. SH-SY5Y cells are removed from the culture medium, the mixed solution is added and mixed well, and incubated in the incubator for 24 hours.
After 24 hours of QD202 treatment, the cells are placed on ice, and 200 μL of cell lysis buffer containing protease inhibitors (25 mM Tris-HCL, 150 mM NaCl, 1 mM EDTA, 1% NP40, 5% Glycerol) is added. The cells are collected into the lysis buffer and the collected samples are rotated and lysed at 4° C. for 30 minutes.
The samples are centrifuged at 4° C. for 10 minutes, and the supernatant is collected. 180 μL of the supernatant is retained and 60 μL of 4×loading buffer is added. […]
For orientation: In western blotting, separated proteins are transferred to a membrane and probed.

Assay [1] concerns the target T1, murine ATP6V1B2 full-length protein (Mus musculus, UniProt P62814).
T1 construct: expressed in transfected cells; host or cells: 293 cells
Nature of the assay: Co-immunoprecipitation of EGFP-tagged QD202 with Myc-tagged ATP6V1B2 full-length protein in 293 cells. The class given is binding. An excerpt: Expression plasmids including murine ATP6V1B2 full-length sequence, 1-286aa truncated sequence or 1-172aa truncated sequence with a Myc tag are respectively constructed; the amino acid sequence of the murine ATP6V1B2 full-length sequence was as set forth in SEQ ID NO. 8, the amino acid sequence of the murine ATP6V1B21-286aa was as set forth in SEQ ID NO. 10; the amino acid sequence of the murine ATP6V1B21-172aa as set forth in as SEQ ID NO. 11; and these plasmids were respectively called as an ATP6V1B2 full-length expression plasmid, an ATP6V1B21-286aa expression plasmid and an ATP6V1B21-172aa expression plasmid. Meanwhile, a QD202 expression plasmid with an EGFP tag was constructed. […]
Then a Protein G agarose bead was added to be bound to the Myc antibody, so as to precipitate the ATP6V1B2 full-length protein, the 1-286aa truncated sequence or the 1-172aa truncated sequence, and proteins which were bound to one another, and finally the proteins subjected to co-immunoprecipitation was detected by virtue of an immunoblotting method.

T1 sequence (P62814 whole entry): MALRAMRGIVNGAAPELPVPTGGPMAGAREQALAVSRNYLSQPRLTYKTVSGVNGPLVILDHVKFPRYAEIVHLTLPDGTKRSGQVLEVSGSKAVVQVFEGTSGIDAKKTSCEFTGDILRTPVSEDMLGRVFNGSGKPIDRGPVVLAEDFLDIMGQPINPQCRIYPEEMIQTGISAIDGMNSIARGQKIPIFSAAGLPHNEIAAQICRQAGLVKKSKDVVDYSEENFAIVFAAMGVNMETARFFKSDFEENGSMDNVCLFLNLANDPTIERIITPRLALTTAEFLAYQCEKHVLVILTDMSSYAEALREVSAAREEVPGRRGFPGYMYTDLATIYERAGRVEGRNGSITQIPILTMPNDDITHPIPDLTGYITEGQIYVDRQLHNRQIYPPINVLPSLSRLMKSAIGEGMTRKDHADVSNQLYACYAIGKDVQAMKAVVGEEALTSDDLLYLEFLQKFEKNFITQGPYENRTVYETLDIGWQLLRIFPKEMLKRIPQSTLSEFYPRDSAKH

Regarding “QD202: polypeptide synthesized according to the amino acid sequence as set forth in SEQ ID NO. 1 (YGRKKRRQRRRSPVDVVCS; QD202)”, the “increase in α-synuclein oligomer caused by rotenone treatment” value with SH-SY5Y cells is on record as “dose-dependently reduce”. Moreover, in assay [1] (293 cells, Myc antibody, immunoblotting), the “binding to ATP6V1B2 full-length protein by co-immunoprecipitation” value is listed as “only the full-length ATP6V1B2 protein can be combined”. The “binding site of ATP6V1B2 and QD202” value in assay [1] (concluded from full-length versus truncated sequences) is 288th amino acid to 512th amino acid.
